The series concerns the molecule itself. The series is described as follows: cryo-EM structure.

B1: E. coli MsbA (natural protein)
chain: MHNDKDLSTWQTFRRLWPTIAPFKAGLIVAGVALILNAASDTFMLSLLKPLLDDGFGKTDRSVLVWMPLVVIGLMILRGITSYVSSYCISWVSGKVVMTMRRRLFGHMMGMPVSFFDKQSTGTLLSRITYDSEQVASSSSGALITVVREGASIIGLFIMMFYYSWQLSIILIVLAPIVSIAIRVVSKRFRNISKNMQNTMGQVTTSAEQMLKGHKEVLIFGGQEVETKRFDKVSNRMRLQGMKMVSASSISDPIIQLIASLALAFVLYAASFPSVMDSLTAGTITVVFSSMIALMRPLKSLTNVNAQFQRGMAACQTLFTILDSEQEKDEGKRVIERATGDVEFRNVTFTYPGRDVPALRNINLKIPAGKTVALVGRSGSGKSTIASLITRFYDIDEGEILMDGHDLREYTLASLRNQVALVSQNVHLFNDTVANNIAYARTEQYSREQIEEAARMAYAMDFINKMDNGLDTVIGENGVLLSGGQRQRIAIARALLRDSPILILDEATSALDTESERAIQAALDELQKNRTSLVIAHRLSTIEKADEIVVVEDGVIVERGTHNDLLEHRGVYAQLHKMQFGQ
Turning to B1, the stoichiometry N (as a rule, a count of units in the complex or per binding partner) turned out to be 2.

For the origin of these results see article PMC5759761 (Nature, 2017).
